Laboratory results from article PMC4285857 (Proteins, 2013).

T1: recombinant human IL-23R-IgG chimera (human, UniProt Q5VWK5 24-355, glycosylated)
T1 sequence (looked up): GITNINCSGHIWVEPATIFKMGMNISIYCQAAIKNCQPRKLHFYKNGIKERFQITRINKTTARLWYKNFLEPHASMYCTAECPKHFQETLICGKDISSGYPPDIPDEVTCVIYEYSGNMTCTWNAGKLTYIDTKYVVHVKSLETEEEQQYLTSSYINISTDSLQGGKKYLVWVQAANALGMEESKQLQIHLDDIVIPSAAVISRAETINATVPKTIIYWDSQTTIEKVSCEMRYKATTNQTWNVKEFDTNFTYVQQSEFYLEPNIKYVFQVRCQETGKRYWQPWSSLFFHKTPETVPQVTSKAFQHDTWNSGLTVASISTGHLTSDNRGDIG

T2: H-exIL-23R, recombinant extracellular part of the human IL-23 receptor with N-terminal His6 tag (human, UniProt Q5VWK5 24-350)
T2 sequence (looked up): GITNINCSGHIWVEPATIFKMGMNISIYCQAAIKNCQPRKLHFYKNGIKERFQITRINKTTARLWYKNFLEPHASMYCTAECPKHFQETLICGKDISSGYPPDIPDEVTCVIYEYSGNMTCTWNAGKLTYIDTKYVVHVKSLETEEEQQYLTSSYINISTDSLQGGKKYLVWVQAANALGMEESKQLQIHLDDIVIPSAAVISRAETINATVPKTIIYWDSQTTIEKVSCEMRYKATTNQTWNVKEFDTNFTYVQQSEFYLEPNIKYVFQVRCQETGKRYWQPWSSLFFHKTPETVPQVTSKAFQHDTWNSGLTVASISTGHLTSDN


Tests used:
[1] = target: T1, recombinant human IL-23R-IgG chimera; test: ELISA
[2] = target: T2, H-exIL-23R, recombinant extracellular …; test: ELISA
[3] = target: T1, recombinant human IL-23R-IgG chimera; test: SPR

Kd [3] [nM] | Binder | also measured
 | DH-MBP-p19, double-His6-MBP-p19 fusion protein with a C-terminal 40 aa solubility-supporting prolongation (ligand, human) RAVPGGSSPAWTQCQQLSQKLCTLAWSAHPLVGHMDLREEGDEETTNDVPHIQCGDGCDPQGLRDNSQFCLQRIHQGLIFYEKLLGSDIFTGEPSLLPDSPVGQLHASLLGLSQLLQPEGHHWETQQIPSLSPSQPWQRLLLRFKILRSLQAFVAVAARVFAHGAATLSPLEKKTCTSRASSTTTTTTEIRLLTKPERKLSWLLPPLSNN | binding result [1]: binds
 | His6-LAEAKVLANRELDKYGVSDRYKNSINRALPVAAVKWALDLILAWLP-{TolA-AviTag(biotin)} (designed binder, not fully specified) [His6-REX128-TolA-AVI] | binding result [2]: binds
1.3 | His6-LAEAKVLANRELDKYGVSDYYKNRINPACHVLSVKSNIDWILASLP-{TolA-AviTag(biotin)} (designed binder, not fully specified) [His6-REX009-TolA-AVI] | 
~1 | His6-LAEAKVLANRELDKYGVSDHYKNWINPARRVRPVKWLIDAILAALP-{TolA-AviTag(biotin)} (designed binder, not fully specified) [His6-REX125-TolA-AVI] | 
